For orientation: koff means a measure of how fast the partners let go of each other. A low value points to a long-lived complex.

Experiment [1] has as its target T1, biotinylated HER3 peptide (screening peptide with a sequence corresponding to the immunogen).
T1 construct: Synthetic peptide of HER3; also called HER3 antigen peptide; peptide-graft
Kind of experiment: Biacore A100 SPR, antibody captured from hybridoma supernatant on anti-mouse Fc, streptavidin-grafted biotinylated HER3 peptide as analyte, 25 C. How it is done: For selection of suitable antibodies, a kinetic screening was performed on hybridoma culture supernatants. The measurements were done using Biacore SPR technology. The CM5 series S sensor chip was mounted into an A100 instrument (GE Healthcare, Biacore) and was hydrodynamically addressed in HBSN buffer (10 mM HEPES pH 7.4, 150 mM NaCl) according to the manufacturer's instructions. The system buffer was HBS-ET (10 mM HEPES pH 7.4, 150 mM NaCl, 0.05% TWEEN 20). The sample buffer was the system buffer supplemented with 1 mg/ml CMD (Carboxymethyldextrane, Sigma #86524). The system was driven at 25° C.
10000 RU RAMIgGFC (relative units of rabbit-anti-mouse F(c)gamma-fragment of the respective mouse immunoglobulin G subclass/Jackson Laboratories) were immobilized according to the manufacturer's instructions using EDC/NHS chemistry on the flow cells FC1 (anti-mouse F(c)gamma of subclass 1), FC2, FC3 and FC4, respectively, on the sensitive spots 1, 2, 4 and 5 on each flow cell. The spots were deactivated using 1M ethanolamine.
The binding activity of antibodies against the HER3 peptide was kinetically tested. Antibodies were captured by a 1 min injection at 10 μl/min of crude hybridoma supernatants diluted 1:3 in sample buffer. Biotinylated Her-3 peptides were carefully singly grafted on streptavidin to enlarge the molecular weight of the complexes and to increase the mass sensitivity of the system. Since the antigen complex dissociation kd is independent of the analyte injection concentration, this is a legal method to increase the sensitivity of the system.

The next experiment addresses T2, HER4 (UniProt Q15303 26-1308, limits assumed).
T2 construct: whole, on cells
Put plainly: IHC on FFPE transfected HEK293 cells, Ventana Benchmark XT. How it is done:
(§1) The suitability of the newly developed HER3 monoclonal antibodies MAK<humanHER3> M-7.2.42 and MAK<humanHER3> M-7.3.8 was shown using FFPE cell line controls. Therefore HER1, HER2, HER3 or HER4 transfected or untransfected HEK293 cells, respectively, were fixed with 4% PBS buffered formaldehyde and were subsequently embedded in paraffin.
(§2) All staining procedures were performed on the Ventana Benchmark XT automated IHC stainer using Ventana buffers and reagents, i.e., amongst others, the standard cell conditioning 1 (CC1) reagent for sample preparation and ultraView DAB as detection system.
(§3) As obvious from FIG. 3 the newly developed HER3 monoclonal antibodies MAK<humanHER3> M-7.2.42 and MAK<humanHER3> M-7.3.8 show specific membrane staining only on HER3 transfected cells. HER1, HER2 and HER4-transfected cells and control cells are negative. HER3 monoclonal antibodies MAK<humanHER3> M-7.2.42 and MAK<humanHER3> M-7.3.8 show good IHC-staining with HER3 transfected cells if used according to standard protocols on the Ventana Benchmark XT analyzer (see FIG. 3, HER3 captioned cell staining).

Another experiment concerns the target T3, HER2 (UniProt P04626 23-1255, limits assumed).
T3 construct: whole, on cells
The experiment is described as above. How it is done: as §1, §2, §3

Experiment [2] deals with T4, HER1 (UniProt P00533 25-1210, limits assumed).
T4 construct: whole, on cells; also called EGFR
Put plainly: Western blot on lysates of transfected HEK293 cells, RT and 37 C. Here is the method: Lysates were prepared from several HEK293 control cell lines. The cells were transiently transfected with plasmids coding for HER1, HER2, HER3 or HER4. HEK293 cells transfected with the mammalian expression vector pRK5 were used as negative control. For western blotting 10 μg protein lysates were loaded per lane on 4-12% NuPage SDS gels (Invitrogen). Western blotting was performed according to standard protocols with standard NuPage buffers and reagents (Invitrogen). After blocking the membrane was incubated with MAK<humanHER3> M-7.2.42, MAK<humanHER3> M-7.3.8 or the HER3 monoclonal antibody DAK-H3-IC from Dako. MAK<humanHER3> M-7.2.42 and MAK<humanHER3> M-7.3.8 were used at a concentration of lng/ml. Primary antibody incubation was performed for 60 min at RT and at 37° C. HRP-conjugated anti-mouse Fab was used as secondary antibody. The dilution of DAK-H3-IC antibody was made as recommended by its manufacturer and the choice of secondary (detection) antibody was adapted as required. The membrane was developed with ECL (Amersham) and exposed to an x-ray film.

Experiment [3] concerns the target T4, HER1. Put plainly: IHC on FFPE transfected HEK293 cells, Ventana Benchmark XT. Here is the method:
as §1, §2, §3

Where a chain is given by its changes, count along the chain named.

T2 sequence (Q15303 26-1308 limits assumed): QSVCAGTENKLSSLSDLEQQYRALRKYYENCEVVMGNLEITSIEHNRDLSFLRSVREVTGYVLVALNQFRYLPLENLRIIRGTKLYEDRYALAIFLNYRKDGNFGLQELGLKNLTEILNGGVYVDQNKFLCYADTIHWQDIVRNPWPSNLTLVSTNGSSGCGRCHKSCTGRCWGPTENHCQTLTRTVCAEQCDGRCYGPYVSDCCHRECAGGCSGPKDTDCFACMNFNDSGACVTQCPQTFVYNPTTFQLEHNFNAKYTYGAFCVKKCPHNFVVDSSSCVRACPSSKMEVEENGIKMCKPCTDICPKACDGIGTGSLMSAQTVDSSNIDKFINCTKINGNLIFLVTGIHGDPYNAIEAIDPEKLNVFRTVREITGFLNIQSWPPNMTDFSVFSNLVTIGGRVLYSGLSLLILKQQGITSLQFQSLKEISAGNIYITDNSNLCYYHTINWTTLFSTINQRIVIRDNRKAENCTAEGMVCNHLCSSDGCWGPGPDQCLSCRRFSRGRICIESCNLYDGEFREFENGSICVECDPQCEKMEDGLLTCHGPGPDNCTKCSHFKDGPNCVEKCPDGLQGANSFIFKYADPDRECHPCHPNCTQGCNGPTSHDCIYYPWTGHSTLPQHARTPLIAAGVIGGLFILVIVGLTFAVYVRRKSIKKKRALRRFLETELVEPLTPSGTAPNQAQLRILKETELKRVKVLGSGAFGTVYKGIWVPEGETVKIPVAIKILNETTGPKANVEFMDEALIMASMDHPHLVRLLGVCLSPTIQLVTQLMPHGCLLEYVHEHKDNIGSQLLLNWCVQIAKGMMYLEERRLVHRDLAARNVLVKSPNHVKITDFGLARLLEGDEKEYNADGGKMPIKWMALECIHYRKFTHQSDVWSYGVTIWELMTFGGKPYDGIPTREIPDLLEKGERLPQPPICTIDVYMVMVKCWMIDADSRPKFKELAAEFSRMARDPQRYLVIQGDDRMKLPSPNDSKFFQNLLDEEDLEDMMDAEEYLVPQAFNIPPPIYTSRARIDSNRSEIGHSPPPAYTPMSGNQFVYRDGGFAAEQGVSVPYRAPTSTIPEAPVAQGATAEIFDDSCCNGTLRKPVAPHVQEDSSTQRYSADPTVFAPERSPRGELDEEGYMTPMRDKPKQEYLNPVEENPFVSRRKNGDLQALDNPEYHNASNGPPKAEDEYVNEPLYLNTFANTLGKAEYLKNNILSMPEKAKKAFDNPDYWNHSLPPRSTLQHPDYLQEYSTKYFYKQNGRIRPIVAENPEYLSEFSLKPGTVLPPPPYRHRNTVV

B1: MAK<humanHER3> M-7.2.42 (antibody, V domains shown)
VH: EVQLLQSGPELVKPGASVKMSCKASGYTFTDYNLHWVKQSHGRTLEWIGYFNPYNGGTFYTQKFKDKATLTINKSSSTAYMELRSLTSEDSAVYYCTRRYFDGSSYFDYWGQGTTLTVSS
VL: DVLMTQTPLSLPVSLGDQASISCRSSQTIVHSNGNTYLEWYVQKPGQSLKLLIYKVSNRFSGVPDRFSGSGSGTDFTLKISRVEAEDLGVYYCFQGSHVPRAFGGGTKLEIKR
notes: Tested as crude hybridoma supernatant in the Biacore screening; also called HER3 monoclonal antibody MAK<humanHER3> M-7.2.42
The molecule B1 came in with a koff in experiment [1] of 4.26e-05 s⁻¹. This molecule showed a t½ diss in experiment [1] of 4.52 h. Besides, the values for the binding result in the experiment with HER4, with HER2 and with HER1 [2] were “no binding”, “no binding” and “no binding (tested: lng/ml (so in the source))”, respectively.

B2: MAK<humanHER3> M-7.3.8 (antibody, V domains shown)
VH: B1 VH with L5Q, V12A, R43K, P53T, T58I, Q112R
VL: B1 VL with T7I, T28S, L49P, V99A, A102T
notes: Tested as crude hybridoma supernatant in the Biacore screening; also called antibody 7.3.8; HER3 monoclonal antibody MAK<humanHER3> M-7.3.8
As to B2, in experiment [1], the koff stood at 2.66e-05 s⁻¹. The molecule also returned a t½ diss in experiment [1] of 7.25 h. In addition, the binding result with HER4, in the experiment with HER1 [3] and in the experiment with HER2 was “no binding” throughout.
